The source of these data is US20250376528A1 (SYNTHEKINE, published 2025).

Assay [1] concerns the target T1, extracellular domain of human IL10Rα (amino acids 22-235, UniProtKB Q13651) (human, UniProt Q13651 22-235).
T1 construct: range 22-235; Antigen used for camel immunization and for phage selection; also called hIL-10Rαecd; hIL10-R1
T1 sequence (looked up): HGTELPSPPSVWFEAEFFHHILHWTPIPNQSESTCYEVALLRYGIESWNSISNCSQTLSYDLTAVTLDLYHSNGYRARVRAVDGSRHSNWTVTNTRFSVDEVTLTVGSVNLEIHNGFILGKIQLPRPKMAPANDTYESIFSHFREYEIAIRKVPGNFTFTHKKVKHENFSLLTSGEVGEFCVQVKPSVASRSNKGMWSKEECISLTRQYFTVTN
The assay can be described thus: phage display biopanning on the antigen, positive colonies by PE-ELISA. As to the method:
(§1) Library biopanning was conducted to screen candidates against the antigens after library construction. Phage display technology was applied in this procedure. Positive colonies were identified by PE-ELISA.
(§2) Camels were immunized with the extracellular domains of the human IL10Rα (amino acids 22-235, UniProtKB Q13651, hIL-10Rαecd) and IL10Rβ (amino acids 20-220, UniProtKB Q08334, hIL-10Rβecd) weekly for seven weeks and PBMCs harvested on day 52. Phage display libraries were constructed and biopanning conducted as described in Example 1 above. 50 VHH sequences were obtained after selection on hIL10-R1 and 47 VHH sequences were obtained after selection on hIL10-R2. Sequences were clonotyped using germline assignment and CDR3 sequence similarity.
(In general: In an ELISA, binding on a coated surface is turned into a signal by an enzyme label.)

Assay [2] deals with T2, extracellular domain of human IL10Rβ (amino acids 20-220, UniProtKB Q08334) (human, UniProt Q08334 20-220).
T2 construct: range 20-220; Antigen used for camel immunization and for phage selection; also called hIL-10Rβecd; hIL10-R2
T2 sequence (looked up): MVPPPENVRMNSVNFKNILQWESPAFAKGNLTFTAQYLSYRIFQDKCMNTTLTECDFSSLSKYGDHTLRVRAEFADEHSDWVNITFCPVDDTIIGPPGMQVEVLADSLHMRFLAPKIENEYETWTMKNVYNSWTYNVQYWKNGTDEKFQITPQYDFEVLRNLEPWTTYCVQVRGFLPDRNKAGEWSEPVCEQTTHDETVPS
The assay is described as above. As to the method: as §1, §2

B1: anti-hIL-10Rαecd VHH SEQ ID NO 48 (VHH)
VHH: QVQLQESGGGSVQAGGSLRLSCTVSGYTYSSNCMGWFRQAPGKEREGVATIYTGGGNTYYADSVKGRFTISQDNAKNTVYLQMNNLKPEDTAMYYCAAEPLSRVYGGSCPTPTFDYWGQGTQVTVSS
notes: Camel VHH selected by phage display; also called Anti-IL10Rα
On to B1, for which the binding result in assay [1] is recorded as “binds”.

B2: anti-hIL-10Rαecd VHH SEQ ID NO 49 (VHH)
VHH: QVQLQESGGGSVQAGGSLRLSCGASGYTYSSYCMGWFRQVPGKEREGVAVIDSDGSTSYADSVKGRFTISKDNGKNTLYLQMNSLKPEDTAMYYCAADLGHYRPPCGVLYLGMDYWGKGTQVTVSS
notes: as for B1
Consider B2, for which the binding result in assay [1] was “binds”.

B3: anti-hIL-10Rβecd VHH SEQ ID NO 56 (VHH)
VHH: QVQLQESGGGSVQAGGSLRLSCAASGYSYSSYCMGWFRQAPGKEREGVATIDSDGMTRYADSVKGRFTISKDNAKNTLYLQMNSLKPEDTAMYYCAAPLYDCDSGAVGRNPPYWGQGTQVTVSS
notes: Camel VHH selected by phage display; also called Anti-IL10Rβ
Take B3: the binding result in assay [2] is given as “binds”.

B4: anti-hIL-10Rβecd VHH SEQ ID NO 52 (VHH)
VHH: QVQLQESGGGSVQAGGSLRLSCAASGYTYSSYCMGWFRQAPGKEREGVAHIDSDGSTSYADSVKGRFTISKDNAKNTLYLQMNSLKPEDTAMYYCAADPIPGPGYCDGGPNKYWGQGTQVTVSS
notes: as for B3
Take B4: in assay [2], the binding result is “binds”.

B5: anti-hIL-10Rαecd VHH SEQ ID NO 46 (VHH)
VHH: QVQLQESGGGSVQAGGSLRLSCAASGYTYSMYCMGWFRQAPGKEREGVAQINSDGSTSYADSVKGRFTISKDNAKNTLYLQMNSLKPEDTAMYYCAADSRVYGGSWYERLCGPYTYEYNYWGQGTQVTVSS
notes: as for B1
For the molecule B5, the binding result in assay [1] was “binds”.

B6: anti-hIL-10Rαecd VHH SEQ ID NO 45 (VHH)
VHH: QVQLQESGGGSVQAGGSLRLSCAASRFTYSSYCMGWFRQAPGKEREGVASIDSDGSTSYTDSVKGRFTISKDNAKNTLYLQMNSLKPEDTAMYYCALDLMSTVVPGFCGFLLSAGMDYWGKGTQVTVSS
notes: as for B1
For the molecule B6, the binding result in assay [1] is “binds”.

B7: anti-hIL-10Rαecd VHH SEQ ID NO 44 (VHH)
VHH: QVQLQESGGGSVQAGGSLRLSCAASRYLYSIDYMAWFRQSPGKEREPVAVIYTASGATFYPDSVKGRFTISQDNAKMTVYLQMNSLKSEDTAMYYCAAVRKTDSYLFDAQSFTYWGQGTQVTVSS
notes: as for B1
Take B7: the binding result in assay [1] is reported as “binds”.

B8: anti-hIL-10Rαecd VHH SEQ ID NO 47 (VHH)
VHH: QVQLQESGGGSVQAGGSLRLSCAVSGYAYSTYCMGWFRQAPGKEREGVAAIDSGGSTSYADSVKGRFTISKDNAKNTLYLRMNSLKPEDTAMYYCAAVPPPPDGGSCLFLGPEIKVSKADFRYWGQGTQVTVSS
notes: as for B1
For B8, in assay [1], the binding result is on record as “binds”.

B9: anti-hIL-10Rβecd VHH SEQ ID NO 57 (VHH)
VHH: QVQLQESGGGSVQTGGSLRLSCAASGYTYLRGCMGWFRQAPGKEREGVAVMDVVGDRRSYIDSVKGRFTISRDNAANSVYLQMDNLKPEDTAMYYCTAGPNCVGWRSGLDYWGQGTQVTVSS
notes: as for B3
With B9, the binding result in assay [2] was “binds”.

B10: anti-hIL-10Rαecd VHH SEQ ID NO 50 (VHH)
VHH: QVQLQESGGGSVQAGGSLRLSCAASGYSNCSYDMTWYRQAPGKEREFVSAIHSDGSTRYADSVKGRFFISQDNAKNTVYLQMNSLKPEDTAMYYCKTDPLHCRAHGGSWYSVRANYWGQGTQVTVSS
notes: as for B1
On to B10, for which the binding result in assay [1] is given as “binds”.
